The text below walks through data of patent publication US20130084301A1 (published 2013).

Assay [1] has as its target T1, HCV 1a E2 with alanine substitution at 443 (hepatitis C virus genotype 1a, H77c, UniProt P27958 384-746). The assay is described as follows: alanine-substitution ELISA. A general note: In an ELISA, binding on a coated surface is turned into a signal by an enzyme label.
Assay [2] deals with T2, HCV 1a E2 with alanine substitution at 429 (hepatitis C virus genotype 1a, H77c, UniProt P27958 384-746). As to the kind of experiment: alanine-substitution ELISA.
The target of assay [3] is T3, HCV 1a E2 with alanine substitution at 442 (hepatitis C virus genotype 1a, H77c, UniProt P27958 384-746). As to the kind of experiment: alanine-substitution ELISA.
Assay [4] deals with HCV 1a E2 with alanine substitution at 616 (hepatitis C virus genotype 1a, H77c, UniProt P27958 384-746). The assay is described as follows: alanine-substitution ELISA.
The target in assay [5] is HCV 1a E2 with alanine substitution at 420 (hepatitis C virus genotype 1a, H77c, UniProt P27958 384-746). As to the kind of experiment: alanine-substitution ELISA, antibody 2 ug/ml.
In assay [6] the target is HCV 1a E2 with alanine substitution at 428 (hepatitis C virus genotype 1a, H77c, UniProt P27958 384-746). The assay is described as follows: alanine-substitution ELISA, antibody 2 ug/ml.
For assay [7], the target named is T4, HCV 1a E2 with alanine substitution at 441 (hepatitis C virus genotype 1a, H77c, UniProt P27958 384-746). As to the kind of experiment: alanine-substitution ELISA, antibody 2 ug/ml.
Assay [8] concerns the target HCV 1a E2 with alanine substitution at 437 (hepatitis C virus genotype 1a, H77c, UniProt P27958 384-746). The assay is described as follows: alanine-substitution ELISA, antibody 2 ug/ml.
In assay [9] the target is T1, HCV 1a E2 with alanine substitution at …. As to the kind of experiment: alanine-substitution ELISA; row marked *: tested at 0.2 ug/ml.
Assay [10] has as its target T2, HCV 1a E2 with alanine substitution at …. Described as above.
Assay [11] addresses T3, HCV 1a E2 with alanine substitution at …. The description is as above.
Assay [12] concerns the target T4, HCV 1a E2 with alanine substitution at …. The assay is described as above.
Assay [13] addresses T1, HCV 1a E2 with alanine substitution at …. As to the kind of experiment: alanine-substitution ELISA, antibody 2 ug/ml.
Assay [14] addresses T2, HCV 1a E2 with alanine substitution at …. The assay is described as follows: alanine-substitution ELISA, antibody 2 ug/ml.
Assay [15] has as its target T3, HCV 1a E2 with alanine substitution at …. The assay is described as follows: alanine-substitution ELISA, antibody 2 ug/ml.
In assay [16] the target is HCV 1a E2 with alanine substitution at 613 (hepatitis C virus genotype 1a, H77c, UniProt P27958 384-746). As to the kind of experiment: alanine-substitution ELISA, antibody 2 ug/ml.

Positions count from the first letter of the chain named.

B1: HC-84.22 (antibody, V domains shown)
VH: EVQLVQSGAEVKKPGSSVKVSCKASGDTFSSYSIHWVRQAPGQGLEWMGRIIPIVGLVDYAQMFQGRVTISADRSTNTVYMDLSNLRSEDTAIYYCARSLGCPNGVCHGPRAADYFDYWGQGTLVTVSS
VL: EMTLTQSPSSLSASVGDRVTITCRASQSISSWLAWYQQKPGKAPKLLIYDASNLETGVPSRFSGSGSGTDFTFTISSLQPEDIATYYCQQYDNLPRTFGQGTKVDIKR
As for B1, the binding result in assay [1], in assay [2], in [3] and in assay [4] was “no binding (tested: 2 ug/ml)” throughout. For the same molecule, the “% of binding to wt E2” value was found to be 18% in assay [5], 19% in [6], 2% in assay [7] and 8% in assay [8].

B2: HC-84.23 (antibody, V domains shown)
VH: B1 VH with E1Q, Q6E, I93Y, Y95C, C96A, A97R, R98A
VL: EIVLTQSPGTVSLFPGDRVTLSCRASQRVPSSSLAWYQQKPGQAPRLLLYGASSRATGIPDRFSGRGSGTDFALSISRLEPEDFAVYYCQQYGSSLITFGQGTRLEIKR
notes: also called HC-23
In the case of B2, the “% of binding to wt E2” value in assay [5] is 20%; in [6], 20%; in [7], 2%; in assay [8], 15%.

B3: HC-84.21 (antibody, V domains shown)
VH: QVQLVQSGAEVKKPGSSVKVSCKASGTSFNRYTFAWVRQAPGQGLEWVGTIIPIVGLTNYAEKFQGRVSITADKSTSTTYMELSSLRSEDTAVYFCARKVEFWLGEIAPNKFDVFDLWGQGTMVTVSS
VL: EIVLTQSPDSLAVSLGERATIHCKSSQSIFFSSNSKDYLAWYQQKPGQPPKLLIYWASTRDSGVPDRFSGSGSGTDFTLTITGLQADDAAVYYCQQFDTPQITFGGGTKLEIKR
notes: also called CBH-84.21
As for B3, the “% of binding to wt E2” value in assay [9] stood at 35%; in assay [10] it was 15%; in assay [11], 20%; in assay [12], 28%.

B4: HC-84.24 (antibody, V domains shown)
VH: QVQLVQSGAEVKKPGSSVKVSCKASGGTFSLNSLSWVRQAPGQGLEWMGTIIPIVGIANYAQKFQGRVTITADKSTGTAYMDLSSLSDDTAVYFCARELYSGTGFFRLEALDYWGQGTLVTVSS
VL: DIQMTQSPATLSLSPGERATLSCRASQSVSSYLAWYQQKPGQAPRLLIYDASNRATGIPARFIAGGSGTDFTLTISSLEPEDFAVYYCQQYGSPQTFGQGTKLEIKR
On to B4, for which the “% of binding to wt E2” value came to 1% in [13], 1% in assay [14] and 14% in assay [15].

B5: HC-84.20 (antibody, V domains shown)
VH: QVQLVQSGSEVKKPGSSVKVSCKASGGTFNIYTVNWVRQAPGQGLEWMGRIIPMLGSADYAQRFQGRVTISADKSTSTAYMELRNLKSEDTAVYYCARSLPREMFFRDDAFDIWGQGTMVTVSS
VL: ETTLTQSPGTLSLSPGERATLSCRASQSVSSNLAWYQQKPGQAPRLLIYGASTRATGIPDRFSGSGSGTDFTLTISRLEPDDFVVYYCQQYGSSPVTFGQGTRLEIKR
Regarding B5, the binding result in assay [2] and in assay [4] was “no binding (tested: 2 ug/ml)” throughout. The “% of binding to wt E2” value in assay [16] came out at 20%; in assay [13] it was 26%; in assay [15] it was 26%; in [7], 6%.
